Assay results: paper doi:10.1101/2025.11.07.687187 (bioRxiv, 2025)

Biological target: the molecule itself
Assay: cryo-EM structure

B1: SPATA5 wild-type, C-terminal 3xFLAG (enzyme, human, UniProt Q8NB90 1-893, looked up)
chain: MSSKKNRKRLNQSAENGSSLPSAASSCAEARAPSAGSDFAATSGTLTVTNLLEKVDDKIPKTFQNSLIHLGLNTMKSANICIGRPVLLTSLNGKQEVYTAWPMAGFPGGKVGLSEMAQKNVGVRPGDAIQVQPLVGAVLQAEEMDVALSDKDMEINEEELTGCILRKLDGKIVLPGNFLYCTFYGRPYKLQVLRVKGADGMILGGPQSDSDTDAQRMAFEQSSMETSSLELSLQLSQLDLEDTQIPTSRSTPYKPIDDRITNKASDVLLDVTQSPGDGSGLMLEEVTGLKCNFESAREGNEQLTEEERLLKFSIGAKCNTDTFYFISSTTRVNFTEIDKNSKEQDNQFKVTYDMIGGLSSQLKAIREIIELPLKQPELFKSYGIPAPRGVLLYGPPGTGKTMIARAVANEVGAYVSVINGPEIISKFYGETEAKLRQIFAEATLRHPSIIFIDELDALCPKREGAQNEVEKRVVASLLTLMDGIGSEVSEGQVLVLGATNRPHALDAALRRPGRFDKEIEIGVPNAQDRLDILQKLLRRVPHLLTEAELLQLANSAHGYVGADLKVLCNEAGLCALRRILKKQPNLPDVKVAGLVKITLKDFLQAMNDIRPSAMREIAIDVPNVSWSDIGGLESIKLKLEQAVEWPLKHPESFIRMGIQPPKGVLLYGPPGCSKTMIAKALANESGLNFLAIKGPELMNKYVGESERAVRETFRKARAVAPSIIFFDELDALAVERGSSLGAGNVADRVLAQLLTEMDGIEQLKDVTILAATNRPDRIDKALMRPGRIDRIIYVPLPDAATRREIFKLQFHSMPVSNEVDLDELILQTDAYSGAEIVAVCREAALLALEEDIQANLIMKRHFTQALSTVTPRIPESLRRFYEDYQEKSGLHTL
B1: binds.
